From US7067619 (LA JOLLA CANCER RESEARCH FOUNDATION, dated 2006)
Bridge positions count the residues as written; N and C are the ends. Ends that are not written are not given here. * marks the point of attachment. Cam = NC(=O)C*

B1: CRGDCL-displaying phage (peptide)
peptide: CRGDCL
notes: on fuse 5 phage, fused to pIII; also called phage expressing CRGDCL
B2: cyclic peptide GACRGDCLGA (peptide)
peptide: GACRGDCLGA
modifications: disulfide 3-7 (inferred)
notes: synthetic; also called cyclic CRGDCL peptide
B3: CPSRLDSPC phage (peptide)
peptide: CPSRLDSPC
modifications: disulfide 1-9 (inferred); not fully specified (N-terminus, C-terminus)
notes: on fuse 5 phage, fused to pIII; also called RLD-containing phage
B4: vitronectin purified from human plasma (ligand, UniProt P04004 20-478, looked up)
chain: DQESCKGRCTEGFNVDKKCQCDELCSYYQSCCTDYTAECKPQVTRGDVFTMPEDEYTVYDDGEEKNNATVHEQVGGPSLTSDLQAQSKGNPEQTPVLKPEEEAPAPEVGASKPEGIDSRPETLHPGRPQPPAEEELCSGKPFDAFTDLKNGSLFAFRGQYCYELDEKAVRPGYPKLIRDVWGIEGPIDAAFTRINCQGKTYLFKGSQYWRFEDGVLDPDYPRNISDGFDGIPDNVDAALALPAHSYSGRERVYFFKGKQYWEYQFQHQPSQEECEGSSLSAVFEHFAMMQRDSWEDIFELLFWGRTSAGTRQPQFISRDWHGVPGQVDAAMAGRIYISGMAPRPSLAKKQRFRHRNRKGYRSQRGHSRGRNQNSRRPSRATWLSLFSSEESNLGANNYDDYRMDWLVPATCEPIQSVFFFSGDKYYRVNLRTRRVDTVDPPYPRSIAQYWLGCPAPGHL
notes: also called labeled vitronectin
B5: cyclized peptide ACDCRGDCFCG (peptide)
peptide: ACDCRGDCFCG
modifications: disulfide (positions not given here); also: two disulfide bonds, pairing not determined
notes: synthetic; also called double disulfide bond-containing peptide
B6: cyclic peptide A*CPSRLDSPC*G (peptide)
peptide: ACPSRLDSPCG
modifications: disulfide 2-10 (inferred)
notes: synthetic; also called RLD-containing peptide

Legend:
[1] = target: T1, α5β1 integrin isolated from human placental extract (human, UniProt P08648 42-1049; P05556 21-798); assay: phage panning on coated integrin
T1 construct: coated on plastic wells or captured by anti-α5 antibody; also called fibronectin receptor
T1 sequence (P08648 42-1049, chain 1 of 2): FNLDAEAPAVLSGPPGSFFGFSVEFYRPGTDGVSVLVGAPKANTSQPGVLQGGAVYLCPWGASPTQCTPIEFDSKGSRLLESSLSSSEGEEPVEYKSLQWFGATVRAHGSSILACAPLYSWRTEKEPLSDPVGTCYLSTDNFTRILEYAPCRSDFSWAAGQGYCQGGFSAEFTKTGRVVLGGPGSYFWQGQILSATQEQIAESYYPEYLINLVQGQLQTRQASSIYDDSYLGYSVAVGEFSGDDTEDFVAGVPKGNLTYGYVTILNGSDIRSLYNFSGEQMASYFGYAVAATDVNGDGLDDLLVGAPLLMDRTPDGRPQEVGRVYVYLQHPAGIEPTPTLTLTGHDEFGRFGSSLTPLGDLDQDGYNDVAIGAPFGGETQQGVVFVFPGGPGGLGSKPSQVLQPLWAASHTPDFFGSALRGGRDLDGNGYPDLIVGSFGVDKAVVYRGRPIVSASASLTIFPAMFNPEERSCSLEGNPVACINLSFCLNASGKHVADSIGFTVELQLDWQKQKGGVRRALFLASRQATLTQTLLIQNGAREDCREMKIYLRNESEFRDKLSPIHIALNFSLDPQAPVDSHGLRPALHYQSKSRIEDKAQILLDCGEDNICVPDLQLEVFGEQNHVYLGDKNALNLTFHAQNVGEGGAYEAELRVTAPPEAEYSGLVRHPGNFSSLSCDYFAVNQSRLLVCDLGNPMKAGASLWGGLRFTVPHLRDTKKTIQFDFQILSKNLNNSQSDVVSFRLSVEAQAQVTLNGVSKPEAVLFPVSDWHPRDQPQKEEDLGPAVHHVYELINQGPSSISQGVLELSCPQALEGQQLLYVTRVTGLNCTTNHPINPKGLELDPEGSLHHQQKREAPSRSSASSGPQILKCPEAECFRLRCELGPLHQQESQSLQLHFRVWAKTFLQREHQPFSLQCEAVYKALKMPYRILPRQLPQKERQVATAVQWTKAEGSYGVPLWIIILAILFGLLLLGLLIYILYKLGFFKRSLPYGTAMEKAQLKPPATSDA
T1 sequence (P05556 21-798, chain 2 of 2): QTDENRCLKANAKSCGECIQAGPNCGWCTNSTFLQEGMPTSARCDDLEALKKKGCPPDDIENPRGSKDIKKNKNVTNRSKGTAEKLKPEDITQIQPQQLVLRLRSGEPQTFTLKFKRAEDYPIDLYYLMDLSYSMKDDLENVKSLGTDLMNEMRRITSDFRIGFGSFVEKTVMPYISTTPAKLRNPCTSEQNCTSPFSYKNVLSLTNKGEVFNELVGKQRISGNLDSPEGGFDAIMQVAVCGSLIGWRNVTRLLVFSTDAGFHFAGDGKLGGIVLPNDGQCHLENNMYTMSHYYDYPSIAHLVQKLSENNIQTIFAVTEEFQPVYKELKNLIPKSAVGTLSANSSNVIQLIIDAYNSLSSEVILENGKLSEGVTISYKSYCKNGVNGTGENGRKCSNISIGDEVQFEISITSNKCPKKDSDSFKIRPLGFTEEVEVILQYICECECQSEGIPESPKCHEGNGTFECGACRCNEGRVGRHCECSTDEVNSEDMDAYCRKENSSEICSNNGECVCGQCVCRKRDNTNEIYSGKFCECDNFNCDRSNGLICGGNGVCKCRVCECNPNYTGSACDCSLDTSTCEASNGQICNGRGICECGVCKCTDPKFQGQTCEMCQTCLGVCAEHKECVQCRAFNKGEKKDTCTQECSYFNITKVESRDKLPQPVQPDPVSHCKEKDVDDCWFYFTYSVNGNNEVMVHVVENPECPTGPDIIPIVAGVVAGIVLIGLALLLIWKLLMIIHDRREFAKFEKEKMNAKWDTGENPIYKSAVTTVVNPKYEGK

[2] = target: T1, α5β1 integrin isolated from human …; assay: phage binding to α5β1-coated wells
[3] = target: T2, αvβ3 integrin isolated from human placental extract (human, UniProt P06756 31-1048; P05106 27-788); assay: competition with CRGDCL phage on αvβ3-coated wells
T2 construct: isolated on GRGDSPK-Sepharose; said to be primarily αvβ3
T2 sequence (P06756 31-1048, chain 1 of 2): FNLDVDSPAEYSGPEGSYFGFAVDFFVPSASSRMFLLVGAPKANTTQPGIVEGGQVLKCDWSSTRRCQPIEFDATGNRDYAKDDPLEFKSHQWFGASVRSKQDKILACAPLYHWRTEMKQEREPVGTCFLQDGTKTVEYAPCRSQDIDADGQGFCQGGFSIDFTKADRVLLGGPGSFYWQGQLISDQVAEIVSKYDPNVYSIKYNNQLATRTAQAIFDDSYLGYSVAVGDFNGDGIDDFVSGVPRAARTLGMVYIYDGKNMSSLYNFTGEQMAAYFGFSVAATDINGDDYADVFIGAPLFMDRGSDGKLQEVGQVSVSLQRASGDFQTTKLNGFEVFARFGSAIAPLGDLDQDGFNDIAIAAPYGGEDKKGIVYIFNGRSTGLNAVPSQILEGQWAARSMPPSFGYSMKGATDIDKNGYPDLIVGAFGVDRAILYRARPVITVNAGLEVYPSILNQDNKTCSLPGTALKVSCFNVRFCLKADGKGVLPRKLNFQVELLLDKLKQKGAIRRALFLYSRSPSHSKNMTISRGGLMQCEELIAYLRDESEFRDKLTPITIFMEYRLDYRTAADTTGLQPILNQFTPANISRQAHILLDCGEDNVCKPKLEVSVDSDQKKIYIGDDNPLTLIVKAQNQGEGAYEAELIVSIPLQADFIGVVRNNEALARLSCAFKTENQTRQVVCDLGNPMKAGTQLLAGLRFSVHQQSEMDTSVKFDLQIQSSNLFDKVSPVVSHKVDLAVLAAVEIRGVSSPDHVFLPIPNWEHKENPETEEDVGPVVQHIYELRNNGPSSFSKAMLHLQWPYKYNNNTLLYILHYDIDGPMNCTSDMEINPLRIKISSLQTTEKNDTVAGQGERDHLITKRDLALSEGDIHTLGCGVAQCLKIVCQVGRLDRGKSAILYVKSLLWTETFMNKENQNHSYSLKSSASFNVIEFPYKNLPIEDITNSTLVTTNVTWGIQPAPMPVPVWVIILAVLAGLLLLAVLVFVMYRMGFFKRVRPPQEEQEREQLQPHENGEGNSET
T2 sequence (P05106 27-788, chain 2 of 2): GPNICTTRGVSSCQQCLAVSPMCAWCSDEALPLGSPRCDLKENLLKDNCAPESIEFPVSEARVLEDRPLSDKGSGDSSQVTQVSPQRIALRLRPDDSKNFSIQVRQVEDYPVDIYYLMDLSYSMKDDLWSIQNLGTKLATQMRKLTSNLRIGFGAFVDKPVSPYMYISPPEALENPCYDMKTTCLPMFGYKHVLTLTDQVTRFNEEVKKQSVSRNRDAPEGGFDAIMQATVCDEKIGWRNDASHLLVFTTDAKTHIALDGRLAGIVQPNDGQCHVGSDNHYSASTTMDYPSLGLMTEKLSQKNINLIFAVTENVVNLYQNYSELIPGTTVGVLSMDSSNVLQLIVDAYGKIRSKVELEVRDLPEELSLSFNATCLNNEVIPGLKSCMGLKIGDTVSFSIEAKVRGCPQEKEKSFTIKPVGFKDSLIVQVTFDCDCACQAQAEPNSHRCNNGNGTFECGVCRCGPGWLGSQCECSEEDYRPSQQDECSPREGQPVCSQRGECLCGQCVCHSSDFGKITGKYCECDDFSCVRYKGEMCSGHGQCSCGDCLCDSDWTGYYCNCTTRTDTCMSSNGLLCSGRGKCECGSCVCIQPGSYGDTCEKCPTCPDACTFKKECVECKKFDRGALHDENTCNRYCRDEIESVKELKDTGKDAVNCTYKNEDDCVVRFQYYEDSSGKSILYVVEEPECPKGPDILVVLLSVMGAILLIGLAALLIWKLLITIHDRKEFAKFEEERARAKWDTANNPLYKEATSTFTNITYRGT
Method: The ability of […] […] [SEQ ID NO:5] was added to compete for binding. Binding was quantitated as described above.

[4] = target: T1, α5β1 integrin isolated from human …; assay: competition with RRETAWA phage on α5β1-coated wells
[5] = target: α5β1 integrin composed of human α5 and CHO β1 on B2/α27 cells (human; Chinese hamster (CHO), UniProt P08648 42-1049); assay: cell-based or functional assay
α5β1 integrin composed of human α5 and CHO β1 on B2/α27 cells, sequence (P08648 42-1049): as the sequence (P08648 42-1049, chain 1 of 2) above

[6] = target: αvβ1 integrin on CHO cell line B2/v7; assay: cell-based or functional assay
[7] = target: T2, αvβ3 integrin isolated from human …; assay: affinity chromatography of placental extract
[8] = target: T2, αvβ3 integrin isolated from human …; assay: phage panning on coated integrin
Method: In the first panning, the integrins were coated at 5 µg per well, and the library pool was incubated for 4 hours at 25° C. in TBS buffer containing 1% bovine serum albumin and 1 mM MnCl_2 (α_5β_1, α_vβ_3) 1 mM MgCl_2 ($\alphaIIb\beta_3$) or 1 mM CaCl_2 (α_vβ_5).

[9] = target: T1, α5β1 integrin isolated from human …; assay: phage binding to integrin-coated wells
[10] = target: T3, αvβ5 integrin isolated from human placental extract (human, UniProt P06756 31-1048; P18084 24-799); assay: affinity chromatography of placental extract
T3 sequence (P06756 31-1048, chain 1 of 2): as the sequence (P06756 31-1048, chain 1 of 2) above
T3 sequence (P18084 24-799, chain 2 of 2): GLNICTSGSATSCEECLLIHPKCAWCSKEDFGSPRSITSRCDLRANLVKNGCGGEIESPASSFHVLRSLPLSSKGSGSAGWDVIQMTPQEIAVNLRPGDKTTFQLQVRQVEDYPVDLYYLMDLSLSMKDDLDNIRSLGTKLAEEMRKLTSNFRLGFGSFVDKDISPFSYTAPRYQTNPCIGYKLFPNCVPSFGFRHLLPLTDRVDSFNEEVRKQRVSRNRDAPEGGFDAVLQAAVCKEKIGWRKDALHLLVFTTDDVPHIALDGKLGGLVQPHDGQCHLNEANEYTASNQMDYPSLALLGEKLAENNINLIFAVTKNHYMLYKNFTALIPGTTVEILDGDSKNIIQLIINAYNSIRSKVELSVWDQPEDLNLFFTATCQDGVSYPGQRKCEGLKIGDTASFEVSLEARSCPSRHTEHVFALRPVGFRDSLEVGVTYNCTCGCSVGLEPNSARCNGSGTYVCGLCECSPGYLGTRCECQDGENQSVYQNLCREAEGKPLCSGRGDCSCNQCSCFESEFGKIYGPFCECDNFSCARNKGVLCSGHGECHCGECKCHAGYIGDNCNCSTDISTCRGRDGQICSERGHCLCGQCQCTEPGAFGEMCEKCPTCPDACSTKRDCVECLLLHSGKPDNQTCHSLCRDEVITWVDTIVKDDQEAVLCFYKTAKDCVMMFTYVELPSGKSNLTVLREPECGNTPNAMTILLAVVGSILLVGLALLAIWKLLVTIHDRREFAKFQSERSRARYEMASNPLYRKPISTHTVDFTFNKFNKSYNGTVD

[11] = target: αvβ5 integrin on HT-29 and UCLA-P3 cells (UniProt P06756 31-1048; P18084 24-799); assay: cell-based or functional assay
αvβ5 integrin on HT-29 and UCLA-P3 cells, sequence (P06756 31-1048, chain 1 of 2): as the sequence (P06756 31-1048, chain 1 of 2) above
αvβ5 integrin on HT-29 and UCLA-P3 cells, sequence (P18084 24-799, chain 2 of 2): as the sequence (P18084 24-799, chain 2 of 2) above

[12] = target: αvβ3 integrin on IMR-90 cells (UniProt P06756 31-1048; P05106 27-788); assay: cell-based or functional assay
αvβ3 integrin on IMR-90 cells, sequence (P06756 31-1048, chain 1 of 2): as the sequence (P06756 31-1048, chain 1 of 2) above
αvβ3 integrin on IMR-90 cells, sequence (P05106 27-788, chain 2 of 2): as the sequence (P05106 27-788, chain 2 of 2) above

[13] = target: T2, αvβ3 integrin isolated from human …; assay: competition with phage on αvβ3-coated wells
[14] = target: T3, αvβ5 integrin isolated from human …; assay: competition with … phage on αvβ5-coated wells
Method: [SEQ ID NO:10] sequence were incubated for 1 hour in integrin-coated wells in the presence of the competing peptides or dimethyl sulfoxide solvent as a control.

[15] = target: T2, αvβ3 integrin isolated from human …; assay: phage competition on αvβ3-coated wells
[16] = target: T3, αvβ5 integrin isolated from human …; assay: phage competition on αvβ5-coated wells

Binder | binding result [1] | other results
RCRAETGWAC (on fuse 5 phage, fused to pIII) [RCRAETGWAC phage] | binds | –
ACRRETAWAC (on fuse 5 phage, fused to pIII) [ACRRETAWAC phage] | binds | –
HCRRETAWAC (on fuse 5 phage, fused to pIII) [HCRRETAWAC phage] | binds | –
GCRRETAWAC (on fuse 5 phage, fused to pIII) [GCRRETAWAC phage] | binds | –
ECRRETAWWC (on fuse 5 phage, fused to pIII) [ECRRETAWWC phage] | binds | –
GCRRETEWAC (on fuse 5 phage, fused to pIII) [GCRRETEWAC phage] | binds | –
ECRRETAWGC (on fuse 5 phage, fused to pIII) [ECRRETAWGC phage] | binds | –
ECRRETAWSC (on fuse 5 phage, fused to pIII) [ECRRETAWSC phage] | binds | –
VCRKETAWAC (on fuse 5 phage, fused to pIII) [VCRKETAWAC phage] | binds | –
GCRKETAWAC (on fuse 5 phage, fused to pIII) [GCRKETAWAC phage] | binds | –
SCRDETLWWC (on fuse 5 phage, fused to pIII) [SCRDETLWWC phage] | binds | –
SCRAETAWMC (on fuse 5 phage, fused to pIII) [SCRAETAWMC phage] | binds | –
DCRRETAWRC (on fuse 5 phage, fused to pIII) [DCRRETAWRC phage] | binds | –
B1 | – | binding result [2]: binds
YCRPETAWAC (on fuse 5 phage, fused to pIII) [YCRPETAWAC phage] | binds | –
SCREETGWGC (on fuse 5 phage, fused to pIII) [SCREETGWGC phage] | binds | –
B2 | – | binding result [3]: binds; binding result [4]: binds
WCRPETGWRC (on fuse 5 phage, fused to pIII) [WCRPETGWRC phage] | binds | –
GAC(Cam)RRETAWAC(Cam)GA [GACRRETAWACGA linearized by reduction and alkylation] | – | fold reduction of activity against the cyclic peptide, cell attachment to fibronectin [5]: ~50 ×

Binder | binding result [1] | other results
GACRRETAWACGA (disulfide 3-11 (inferred)) [cyclic peptide GACRRETAWACGA] | – | IC50 of inhibition of cell attachment to fibronectin (B2/α27 cells) [5]: 30000 nM; fold less active than the cyclic RGD peptide, inhibition of cell attachment to fibronectin [6]: > 100 ×; fold less active than …, inhibition of cell attachment to fibronectin [6]: ~40 ×
GRGDSPK (also: coupled to Sepharose, also called GRGDSPK peptide column) [Sepharose-coupled GRGDSPK peptide] | – | binding result [7]: binds
DCRRETSWAC (on fuse 5 phage, fused to pIII) [DCRRETSWAC phage] | binds | –
RCREETAWAC (on fuse 5 phage, fused to pIII) [RCREETAWAC phage] | binds | –
RCREETLWAC (on fuse 5 phage, fused to pIII) [RCREETLWAC phage] | binds | –
RCRSETAWAC (on fuse 5 phage, fused to pIII) [RCRSETAWAC phage] | binds | –
B3 | – | binding result [8]: binds; binding result [9]: no binding
SCRRETQWHC (on fuse 5 phage, fused to pIII) [SCRRETQWHC phage] | binds | –
B4 | – | binding result [10]: binds
PCREETAWRC (on fuse 5 phage, fused to pIII) [PCREETAWRC phage] | binds | –
WCREETGWWC (on fuse 5 phage, fused to pIII) [WCREETGWWC phage] | binds | –
ACRAETAWRC (on fuse 5 phage, fused to pIII) [ACRAETAWRC phage] | binds | –
B5 | – | IC50 of inhibition of attachment of HT-29 cells to vitronectin [11]: 600 nM; IC50 of inhibition of attachment of UCLA-P3 cells to vitronectin [11]: 600 nM; fold enhancement in activity relative to *CRGDC*, UCLA-P3 cells [11]: 20 fold; fold higher affinity than *CRGDC*, attachment of HT-29 cells to vitronectin [11]: 40 fold; fold higher affinity than A*CRGDGWC*G, attachment of HT-29 cells to vitronectin [11]: 40 fold; IC50 of inhibition of attachment of IMR-90 cells to vitronectin [12]: 200 nM; fold more effective than *CRGDC*, attachment of IMR-90 cells to vitronectin [12]: 20 fold; fold better inhibition than *CRGDC* [13]: 5 fold; fold more potent than *CRGDC* [14]: 10 fold
GACELRGDGWCGA (disulfide 3-11 (inferred)) [cyclic peptide GAC*ELRGDGWC*GA] | – | fold less active than A*CRGDGWC*G, cell attachment to fibronectin [5]: 10 fold
B6 | – | fold lower activity than *CRGDC* [15]: 100 fold; fold lower activity than *CRGDC* [16]: 1000 fold
WCRRETNWAC (on fuse 5 phage, fused to pIII) [WCRRETNWAC phage] | binds | –
GCREETAWQC (on fuse 5 phage, fused to pIII) [GCREETAWQC phage] | binds | –
DCRHETAWAC (on fuse 5 phage, fused to pIII) [DCRHETAWAC phage] | binds | –
WCRGETAWAC (on fuse 5 phage, fused to pIII) [WCRGETAWAC phage] | binds | –
